In the nanobody polyreactivity screen of Harvey et al. (2022):

Assay: yeast display, Sf9 membrane polyspecificity reagent, FACS + sequencing; frameworks hold sequencing errors
Procedure, shortened: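 A synthetic nanobody library was expressed on Saccharomyces cerevisiae BJ5465 by galactose induction for 36–48 hours. The library was stained for 1 hour at 4 °C with 10% biotinylated, detergent-solubilized Sf9 membrane reagent and enriched with streptavidin microbeads before FACS. Low and high (top ~1%) gates were set on anti-HA fluorescence for expression and streptavidin fluorescence for reagent binding, and each polyreactivity label reflects the gate of origin.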

Row | Sequence | polyreactivity (PSR sort gate)
1 | QVQLGESGGGLVHAGGSLRLSCAASGFIFGYYAMGWYRQAPGKERELVAAISQSTGSTYYADSVKGRFTISRDTAKNTVYLQMNSLKPEATAVYYCNAEGPEFTTWGYVYWAWGYGYWGQGTQVTVSS | low polyreactivity
2 | QVQLGESGGGLVLAGGSLRLSCAASGYDMGWYRHAPGKESELVAAISRGGSTSYADSVKGRFTISRDNAKNTVYLQMNSLKPEDTAVYYCAARYGSYRVGYDYWGQGTQVTVSS | low polyreactivity
3 | QVQLGESGGGLVLAGGSLRLSCAASGYIFRAYAMGWYRQAPGKERELVAAISSRGGSTYYADSVKGRFTSSRDYAKNTVYLQMNSLKPEDTEVYYCAAAYRQPYIGYGYWGQGTQVTVSS | high polyreactivity
4 | QVQLGESGGGLVQAGGRLRLRCAASGIIFTKYAMGLYRQAPGKERELVAAITASGGSTYYADSVKGRFTISRDTAKNTVYLQMNSLKPEDTAVYYCAARSPSRYGYWGQGTQVTVSS | high polyreactivity
5 | QVQLGESGGGLVQAGGSIRLSCAASGRTFYGYAMGWYRQAPGTERELVAAISYSGARTYYADSVKGRFTISRDNAKHTVNLQMNSLKPEDTAVYYCAATRAYWIGHLDYWGQGTQVTVSS | high polyreactivity
6 | QVQLGESGGGLVQAGGSLRLICAASGSTTPGNAMGWYRQAPGKQREFDADINSGGGTNYADSVKGRFTISRDNAKNNVYLQMNSLKPEDTAVYYCAKGYRRSFIGYWYLKYGYWGQGTQVTVSS | high polyreactivity
7 | QVQLGESGGGLVQAGGSLRLRCAASGSNFRTYVMGWYRQGPGKERELVAAISRRGGSTYYADSVKGRFTISRDNAKNTVYLPMNSLKPEDTAVYNCAAEDEYSLEYSTLDYWGQGTQVTVSS | high polyreactivity
8 | QVQLGESGGGLVQAGGSLRLSCAASGFTFYRYTLGWYRQAPGKERELVASITRRGGSTYYADSVKGRFTISRDNAKNYVYLQMNSLKPEDTAVYDCNAATPVWQSGTYEYWGQGTQVTVSS | high polyreactivity
9 | QVQLGESGGGLVQAGGSLRLSCAASGGILYWYAMGWYRQAPGKERELVAAIDGTGGSTYYADSVKGRFTISRDNAKNTVYFQMYSLRPEDTEVYYCDATRPSIVTGNVKNGYWGHGTQVTVSS | low polyreactivity
10 | QVQLGESGGGLVQAGGSLRLSCAASGLIIFSYAMGWSRQAPGKELEMVAAISRSGGRTYFADSVKGRFTISRDNAKNTVFLQMNRLKPEDTAVYYCAADDPYTPQYPDVTYDFWGQGTQVTVSS | high polyreactivity
11 | QVQLGESGGGLVQAGGSLRLSCAASGNTFFTYAMGWYRQAPGKERELVAVITSVGSTNYADSVKGRFTISRDNAKNTVYLQMNSLKPEDTAVYYCAARTRRGLARYDYWGHGTQVTVSS | high polyreactivity
12 | QVQLGESGGGLVQAGGSLRLSCAASGRIFISKTMGWSRQAPGKERELVAAITSSGRTYYADSVKGRFTISRDNAMNTVFFQMNSGKPEDTADYYCAADSYSGNDRRRGFDYWGQGTQVTVSS | low polyreactivity
13 | QVQLGESGGGLVQAGGSLRLSCAASGRIFRVNTMGWYRQAPGKERELVAAIRSSGTRTYYAVSVKGRFTISRDNAKNTVYLQMNSLKPEDTAVYYCAATGRRGSGYYYWGQGTQVTVSS | high polyreactivity
14 | QVQLGESGGGLVQAGGSLRLSCAASGRIFRYYAMGWYRQAPGKERELVAAISSSGGSTYYADSVKGRFTISRDNAKNTVYLQMNSLKPEDTAVYYCNTVGSVGKKRDYWGQGTQVTVSS | high polyreactivity
15 | QVQLGESGGGLVQAGGSLRLSCAASGRIFSYNAMRWYRPAPGKERELVAGITSGGRTYYADSVKGRFTISRDNAKNTVYLQMNSLKPEDTAVYYCAARYVPARTRYYFWGQGSQVTVSS | high polyreactivity
16 | QVQLGESGGGLVQAGGSLRLSCAASGRIFVYNAMGWYRQAPGKERQLVAAIRNDGSTNYADSVKGRFTISRDNAKNTVYFQMNSLKPEDTAVYYCAKSVTGWRGLWYTPRNYYWGQGTQVTVSS | high polyreactivity
17 | QVQLGESGGGLVQAGGSLRLSCAASGRIFYLNAMGWYRQAPGKERELVAVITGNAGCTYYADSVKGRFTISRDHAKNTVYLQMNSLKPEDTAVYYCNALRLVPWSDALYDYWGQGTQVTVSS | low polyreactivity
18 | QVQLGESGGGLVQAGGSLRLSCAASGRIVRFYAMGWYRQAPGKERELVATISRSGGSTYYADSVKGRFTISRDNAKNTVNIQMNSLKPEDTAVYYCARLVGSRYGHWGQGTQVTVSS | high polyreactivity
19 | QVQLGESGGGLVQAGGSLRLSCAASGRTFGLYAMGWYRQAPGKERELVAAISWGGGRTYYADSVKGRFTISRDNAKNTVYLQMNSLKPEDTAVYYCNAVYSPRYYVGGYDYWGQVTQVTVSS | high polyreactivity
20 | QVQLGESGGGLVQAGGSLRLSCAASGRTFHGYAMGWYRQAPGKERELVARINWSDGRTYYADSVKGRFTISRDNAKNTVYLQMNSLKPEDTAVYYCAADKTVSYAPAWYYYWGQGTQVTVSS | low polyreactivity
21 | QVQLGESGGGLVQAGGSLRLSCAASGRTFVDNHMGWYRQAPGKERELVAAITWRGGGTYYADSVKGRFTISRYNAKNTVYLQMNSLKPEDTAVYYSAADQRPPFVEPRGLSTGEFDYWGQGTQVTVSS | low polyreactivity
22 | QVQLGESGGGLVQAGGSLRLSCAASGSIFEVYAMGWYRQAPGKERELVAAINYTGGSTYYADSVKGRFTISRDNAKNTVYLQMNSLKPEDTAVYYCARDTSGIGTRYDYWGQGTQVTLSS | low polyreactivity

Row | Sequence | polyreactivity (PSR sort gate)
23 | QVQLGESGGGLVQAGGSLRLSCAASGSTFPVYAMGWSRQAPGKEWELVAAISSGGTTNYADSVKGRFTISRDNAKNTVYLQRNSLKPEDTAVYYCAADDWYYHFLVSSSAFDYWGQGTQVTVSS | high polyreactivity
24 | QVQLGESGGGLVQAGGSLRLSCAASGSTFVWYAMGWYRQAPGKERELVANISGSGGSTYYADSVKGRFTISRDNAKNTVYLQMNSLKPEDNAVYYCAAQRQWRTQYDDDYWGQGTQVTVSS | low polyreactivity
25 | QVQLGESGGGLVQAGGSLRLSCAASGTIYGYVMGWYRQAPGKERVLVAAISSSGGSTYYADSVKGRFTISRDNAKNTVYLQMNSLKPEDTAVYYCAKGLTYARRYGYWGQRTQVTVSS | high polyreactivity
26 | QVQLGESGGGLVQAGGSLRLSCAASGYIFAYYAMGWSRQAPGKERELVAAISRSGGSTYYADSVKGRFTISRDNAKNTVYLEMISLKPEDTAVSYCAARSTGNYEREYNYWGQGTQVTVSS | high polyreactivity
27 | QVQLGESGGGLVQAGGSLRLTCAASGIIFPYYAMGWYRQATGKERELVAGISSSGGITYADSVKGRFTISRDNGKNTVYLQMNSLKPEDTAVYYCNAEYQWLEYDYCGQGTQVTVSS | low polyreactivity
28 | QVQLGESGGGLVQAGGSLRLTCAASGITFAYYVMGWYRKAPGKERELVAASTRSGDFTSYADSVKGRFTISRDNAKNTVYFQMNSLKPEDTAVYYCNARRGYQSRRYNYWGQGTQVTVSS | high polyreactivity
29 | QVQLGESGGGLVQAGGSLRLTCAASGITFGPYAMGWSRQAPGKERELVAAITWRGGSTYYADSVKGRFTISRDNAKNTVYLQMNSLKPEDTAVYYCNAKTEYGSPRGYGSWGQGTQVTVSS | low polyreactivity
30 | QVQLGESGGGLVQAGGSLRVICAASGFIFRDYAMGWYIQAPGKERELFAAIRSTTGSTYYADSVKGRFTISRDNSKNTVYLQMNSLKPEDTAVYYCAAAYPFYADMDYSGQGTQVTVSS | low polyreactivity
31 | QVQLGESGGGLVQAGGSRRFSSAASGSIVKAYAMGWYRPAPGKDRELVAAISTSDGSTYYADSVKGRFTISRDNAKNTVYLQMNSLKPEDTAVYYCATEYDYWDDSYDSWGQGTQVTVSS | low polyreactivity
32 | QVQLGESGGGLVQAGRSLRLSCAASGSTIGPDAMGWYRQAPGTERELVAAIRYSSVRTYYADSVKGRFTISRDNAKNSVYVQMNSLKPEDTAVYYCNAVFWSYTVWGRSDYWGQGTQVTVSS | low polyreactivity
33 | QVQLGESGGGLVQAGVSLRLSCAASGSLFYHNAMGWYRHAPGKERELVAAISGRGGSTYYADSVKGRFTISRDNAKNTVYLQMNSLKPEDTAVYYCAADARYQNGGLYYWGQGTQVTVSS | high polyreactivity
34 | QVQLGESGGGLVQSGGSLRLSCAASGRIFDLNAMGWYRPAPGKERELVAAISYSDGSTYYADSVKGRFTISRDNEKNTVYLQMNSLKTEDTAVYYCAADFFDRTYITWYEYWGQGTQVTVSS | high polyreactivity
35 | QVQLGESGGVLVQAGGSLRLSCAASGRIFSENAMGWYRQATGKEWELVAAITGNGGDTYYADSVKGRFTISRDTAKNTVYLQMNSLKPEDTAVYYCAAETGGLGGDYWGQGTQVTVSS | low polyreactivity
36 | QVQLGESRGGIVQAGGSLRLSCAASGSTFSYYAMGWYRQAPGKARELVAAISNRGGSTYYADSVKGRFTISRDNAKNTVYLQMNSLKPEDTAVYYCAAYYVFGYSTSGDYWGQGTQVTVSS | high polyreactivity
37 | QVQLGESRGGLVQAGGSLRLSCAASGRTFTGYAMGWYRQAPGKERELVAAITVSSGRTYYADSVKGRFTISRDNAKNTVYLQMNSLKPEDTAVYYCAKRFRSTHLWKFGGYDYWGQGTQVTVSS | high polyreactivity
38 | QVQLGESVGGLVQAGGSLRLSCAASGRIFEPYAMGWYRQAPGKESELVAAINSGGSTNYADSVKGRFTISRDNAKNTVYLQMNSLKPEDTAVYYCNKGQNIRQSPGDYWGLGTQVTVSS | low polyreactivity
39 | QVQLHESAGGLEQAGGCLSCTASGTIFGQGDMCWYLQAPGKEPELVGTINDGASTYYADSVKGRFTISRDKAKNTVYLQKNSLKPADTAVYYCSVFTDITTYFGYWGQGTQVTVSS | low polyreactivity
40 | QVQLHESGGGLVQAGGGLRLSCAASGSISSTGFMGWYRQAPGKEREPVAAIAPGTTTYYADSVKGRFTISRDNAINTVYLQMNSLRPEDTAVYYCAVFTDNRVAFLYWGQGTQVTVSS | low polyreactivity
41 | QVQLHESGGGLVQAGGGLRLSSAASGSISSTGFMGWYRQAPGKEREPVAAIAPGTTTYYADSVKGRFTISRDNAKNTVYLQMNSLRPEDTAVYYCAVFTDNRVAFLYWGQGTQVTVSS | low polyreactivity
42 | QVQLHESGGGLVQAGGSLRLSCAASGTISYAGPMGWYRQAPGKEREFVAGIGVGSNTNYADSVKGRYTIIRDNAKNTVYLQMNSLNPEDTAVYYCAVGGYDPLGRPYWGQGTQVTVSS | low polyreactivity
43 | QVQLIESGGGLVQAGGSLRLSCAASGSSLYYYALGWYRQAPGKEREWVAAISSSDGRTYYADSVKGRFTISRDNAKNTVYVQMNSLKPEDTAVYYCNAAVYAHRYIYGFDYWGQGTQVTVSS | high polyreactivity
